Target: MUC1-5TR (unglycosylated, five MUC1 tandem repeats) (UniProt P15941 126-225)
Assay: SPR

Chain of MUC1-5TR (unglycosylated, five MUC1 tandem repeats) (P15941 126-225): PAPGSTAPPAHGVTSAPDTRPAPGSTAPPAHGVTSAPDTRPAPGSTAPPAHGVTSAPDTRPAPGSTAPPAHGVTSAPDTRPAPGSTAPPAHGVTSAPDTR

GAAGTGAAAATGACAGAACACAACA (ssDNA) [5TR1]
Kd: 21 nM

CAAACAATCAAACAGCAGTGGGGTG (ssDNA) [5TR3]
Kd: 83 nM

TACTGCATGCACACCACTTCAACTA (ssDNA) [5TR4]
Kd: 69 nM

GGCTATAGCACATGGGTAAAACGAC (ssDNA) [5TR2]
Kd: 85.2 nM

Reference: paper PMC2647295
